± gives the standard deviation of the averaged measurements.
What was measured:
[1] = test system: VchCAST RNA-guided transposition machinery (E. coli BL21(DE3) host, lacZ target); test: relative integration efficiency (T-RL orientation) vs wild-type transposon end (log2 (normalized fold change)); transposon end mutated: right end (5 bp flank + 75 bp right end); higher = more efficient transposition
In short: (§1)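 Relative integration efficiency is a fold change of output over input barcode abundance, normalised to reference barcodes and log-transformed. Input plasmids and genomic integration junctions were PCR-amplified and Illumina-sequenced from E. coli BL21(DE3) co-transformed with a T7-driven effector plasmid and pUC57 donor pools of 1549 left-end or 1849 right-end transposon variants. Plating was done with 0.1 mM IPTG at 37°C for 18 h, with two biological output replicates and four reference barcodes.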

[2] = test system: VchCAST RNA-guided transposition machinery (E. coli BL21(DE3) host, lacZ target); test: relative integration efficiency (T-LR orientation) vs wild-type transposon end (log2 (normalized fold change)); transposon end mutated: right end (5 bp flank + 75 bp right end); higher = more efficient transposition
In short: as §1

Row | Sequence | relative integration efficiency (log2) [1] | relative integration efficiency (log2) [2]
1 | ACATTTGTTGATACAACCATAAAATGATAATTACACCCATAAATTGATAATTATCACACCCATAAATTGATATTGCCTCTGGCTAGCATTGTACCTAGGACTGAGCTAGCCATAAACGCACCGACAC | -0.0442 ± 0.11 | 0.293 ± 0.3
2 | ACATTTGTTGATACAACCATAAAATGATAATTACACCCATAAATTGATAATTATCACACCCATAAATTGATATTGCCTCTGTACCGTTCGTATAATGTATGCTATACCAAGTTATTCGCACCGACAC | -0.351 ± 0.19 | -0.0326 ± 0.059
3 | ACATTTGTTGATACAACCATAAAATGATAATTACACCCATAAATTGATAATTATCACACCCATAAATTGATATTGCCTCTGTACCGTTCGTATACGATACATTATACGAAGTTATTCGCACCGACAC | -1.24 ± 0.29 | 1.66 ± 0.14
4 | ACATTTGTTGATACAACCATAAAATGATAATTACACCCATAAATTGATAATTATCACACCCATAAATTGATATTGCCTCTGTACGATCCAGTGATCTCCAAGACGCTGCAAGAGTCCGCACCGACAC | 0.0556 ± 0.23 | -0.117 ± 0.38
5 | ACATTTGTTGATACAACCATAAAATGATAATTACACCCATAAATTGATAATTATCACACCCATAAATTGATATTGCCTCTGTTGACAGCTAGCTCAGTCCTAGGTATAATGCTAGCCGCACCGACAC | -0.0954 ± 0.038 | 0.147 ± 0.2
6 | ACATTTGTTGATACAACCATAAAATGATAATTACACCCATAAATTGATAATTATCACACCCATAAATTGATATTGCCTCTGTTGACGGCTAGCTCAGTCCTAGGTATAGTGCTAGCCGCACCGACAC | -0.43 ± 0.065 | -0.517 ± 0.3
7 | ACATTTGTTGATACAACCATAAAATGATAATTACACCCATAAATTGATAATTATCACACCCATAAATTGATATTGCCTCTGTTGGCGCCCGGCCCTCAGGCCCTGCAGTGAGTTCCAGCACCGACAC | 0.121 ± 0.15 | 0.0708 ± 0.019
8 | ACATTTGTTGATACAACCATAAAATGATAATTACACCCATAAATTGATAATTATCACACCCATAAATTGATATTGCCTCTGTTTATGGCTAGCTCAGTCCTAGGTACAATGCTAGCCGCACCGACAC | -0.0948 ± 0.31 | -0.0571 ± 0.23
9 | ACATTTGTTGATACAACCATAAAATGATAATTACACCCATAAATTGATAATTATCACACCCATAAATTGATATTGCCTCTTAACACCCGTATTACTTCATAATCGTTTGTAATTCAAGCACCGACAC | -0.169 ± 0.26 | 1.41 ± 0.25
10 | ACATTTGTTGATACAACCATAAAATGATAATTACACCCATAAATTGATAATTATCACACCCATAAATTGATATTGCCTCTTCATGCAGATTTGAACAGTAAGTTTACGACATTTTCAGCACCGACAC | -0.604 ± 0.37 | 1.32 ± 0.14
11 | ACATTTGTTGATACAACCATAAAATGATAATTACACCCATAAATTGATAATTATCACACCCATAAATTGATATTGCCTCTTCATGCAGATTTGAACAGTTTCAAATGCTGATTTTCAGCACCGACAC | 0.29 ± 0.31 | 0.372 ± 0.19
12 | ACATTTGTTGATACAACCATAAAATGATAATTACACCCATAAATTGATAATTATCACACCCATAAATTGATATTGCCTCTTCATGGTCTAAACTTCAGTAAGTTTACGACATTTTCAGCACCGACAC | -0.93 ± 0.4 | 1.44 ± 0.19
13 | ACATTTGTTGATACAACCATAAAATGATAATTACACCCATAAATTGATAATTATCACACCCATAAATTGATATTGCCTCTTCATGGTCTAAACTTCAGTCCTGGGCATCAATTTTCAGCACCGACAC | 0.135 ± 0.16 | -0.163 ± 0.029
14 | ACATTTGTTGATACAACCATAAAATGATAATTACACCCATAAATTGATAATTATCACACCCATAAATTGATATTGCCTCTTCATGGTCTAAACTTCAGTTTCAAATGCTGATTTTCAGCACCGACAC | 0.164 ± 0.26 | 0.262 ± 0.23
15 | ACATTTGTTGATACAACCATAAAATGATAATTACACCCATAAATTGATAATTATCACACCCATAAATTGATATTGCCTCTTCATGTGAGCCCAGGCAGTAAGTTTACGACATTTTCAGCACCGACAC | -1.91 ± 0.27 | 2.37 ± 0.34
16 | ACATTTGTTGATACAACCATAAAATGATAATTACACCCATAAATTGATAATTATCACACCCATAAATTGATATTGCCTCTTCATGTGAGCCCAGGCAGTCCTGGGCATCAATTTTCAGCACCGACAC | -0.116 ± 0.3 | 0.0484 ± 0.15
17 | ACATTTGTTGATACAACCATAAAATGATAATTACACCCATAAATTGATAATTATCACACCCATAAATTGATATTGCCTCTTCTTTGCTCACGCATCTAGTCGGTCCACGTTTGGTTCGCACCGACAC | -0.231 ± 0.37 | -0.129 ± 0.28
18 | ACATTTGTTGATACAACCATAAAATGATAATTACACCCATAAATTGATAATTATCACACCCATAAATTGATATTGCCTCTTTATGCAGGACGACGTACGCGTTCCATATAAACCTGTGCACCGACAC | 0.021 ± 0.25 | -0.104 ± 0.19
19 | ACATTTGTTGATACAACCATAAAATGATAATTACACCCATAAATTGATAATTATCACACCCATAAATTGATATTGCCTCTTTGTGAGCGGATAACAAGATCATAGTCAGACCAACATGCACCGACAC | -0.26 ± 0.07 | -0.434 ± 0.17
20 | ACATTTGTTGATACAACCATAAAATGATAATTACACCCATAAATTGATAATTATCACACCCATAAATTGATATTGCCTGAGATCATAGTCAGACCAACATTGCTACGACCCGTATTCGCACCGACAC | 0.0616 ± 0.0024 | 0.172 ± 0.11
21 | ACATTTGTTGATACAACCATAAAATGATAATTACACCCATAAATTGATAATTATCACACCCATAAATTGATATTGCGACTGATCATAGTCAGACCAACATTGCTACGACCCGTATTCGCACCGACAC | -0.0819 ± 0.0067 | -0.0636 ± 0.17
22 | ACATTTGTTGATACAACCATAAAATGATAATTACACCCATAAATTGATAATTATCACACCCATAAATTGATATTGCGAGAGATCATAGTCAGACCAACATTGCTACGACCCGTATTCGCACCGACAC | -0.286 ± 0.11 | -0.165 ± 0.12
23 | ACATTTGTTGATACAACCATAAAATGATAATTACACCCATAAATTGATAATTATCACACCCATAAATTGATATTGCTCTGATCATAGTCAGACCAACATTGCTACGACCCGTATTCGCACCGACACT | 0.126 ± 0.019 | -0.11 ± 0.21
24 | ACATTTGTTGATACAACCATAAAATGATAATTACACCCATAAATTGATAATTATCACACCCATAAATTGATATTGCTTATGATCATAGTCAGACCAACATTGCTACGACCCGTATTCGCACCGACAC | 0.0482 ± 0.094 | -0.462 ± 0.31
25 | ACATTTGTTGATACAACCATAAAATGATAATTACACCCATAAATTGATAATTATCACACCCATAAATTGATATTGGGAGTGATCATAGTCAGACCAACATTGCTACGACCCGTATTCGCACCGACAC | -0.111 ± 0.04 | 0.108 ± 0.15
26 | ACATTTGTTGATACAACCATAAAATGATAATTACACCCATAAATTGATAATTATCACACCCATAAATTGATATTTAAGAGGATCATAGTCAGACCAACATTGCTACGACCCGTATTCGCACCGACAC | 0.179 ± 0.034 | 0.08 ± 0.011
27 | ACATTTGTTGATACAACCATAAAATGATAATTACACCCATAAATTGATAATTATCACACCCATAAATTGATATTTAAGCTGATCATAGTCAGACCAACATTGCTACGACCCGTATTCGCACCGACAC | -0.000531 ± 0.0027 | -0.0384 ± 0.075
